Biological target: T1, NPY Y1 receptor (human, UniProt P25929 1-384)
T1 construct: whole, on cells; SK-N-MC cells are said to express the NPY Y1 receptor exclusively; also called SK-N-MC cells
T1 sequence (looked up): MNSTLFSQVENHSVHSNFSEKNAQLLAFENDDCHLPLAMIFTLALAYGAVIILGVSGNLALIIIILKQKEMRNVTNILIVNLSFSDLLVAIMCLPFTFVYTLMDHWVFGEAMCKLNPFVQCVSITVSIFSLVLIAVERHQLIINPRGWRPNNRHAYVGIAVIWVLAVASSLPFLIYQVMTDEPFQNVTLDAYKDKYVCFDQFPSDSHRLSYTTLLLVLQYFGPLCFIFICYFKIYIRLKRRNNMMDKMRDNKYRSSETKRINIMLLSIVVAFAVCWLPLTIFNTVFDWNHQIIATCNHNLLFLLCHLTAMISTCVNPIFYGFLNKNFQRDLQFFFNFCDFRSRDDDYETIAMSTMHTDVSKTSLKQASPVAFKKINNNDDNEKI
Assay: 125I-NPY displacement on SK-N-MC cells
Protocol: Various peptide dilutions were incubated with SK-N-MC cells that exclusively express Y1 receptors. Cells were then washed three times with buffer and lysed in 1% Nonidet P40 (Fluka, Neu-Ulm, Germany), 8M urea, 3M acetic acid. […] At the end of the incubation period, cells were washed and lysed. Bound radioactivity was determined by gamma counting. […] Each point represents the mean ± of at least 4 experiments.

binding result: binds
B1: Neuropeptide Y (NPY) (peptide)
peptide: not shown
modifications: C-terminal tyrosine amidated
notes: also called native NPY; Human NPY 1-36

Source: patent US20040009905A1 (B M R A CORPORATION B V, published 2004)
